Experimental data reported in paper PMC8213676, “OsJAZ11 regulates phosphate starvation responses in rice”.

Target: OsPHR2-6XHIS (Oryza sativa, UniProt Q6Z156 1-426)
Test: EMSA; 0.7 ug protein, 50 ng probe; 15 mM HEPES pH 8.0, 30 mM KCl, 1 mM MgCl2, 0.2 mM EDTA, 0.02 mM DTT, 0.6% glycerol, 1 ug poly(dI-dC) in 20 ul, 20 °C 30 min (1 h with 15 mM NaH2PO4 for inhibition assay); gel 0.5X TBE at 4 °C
Details: protein: recombinant; tags: 6xHis (pET28a); chain copies: 2; label: DIG 3' end; blunt

OsPHR2-6XHIS, sequence (Q6Z156 whole entry): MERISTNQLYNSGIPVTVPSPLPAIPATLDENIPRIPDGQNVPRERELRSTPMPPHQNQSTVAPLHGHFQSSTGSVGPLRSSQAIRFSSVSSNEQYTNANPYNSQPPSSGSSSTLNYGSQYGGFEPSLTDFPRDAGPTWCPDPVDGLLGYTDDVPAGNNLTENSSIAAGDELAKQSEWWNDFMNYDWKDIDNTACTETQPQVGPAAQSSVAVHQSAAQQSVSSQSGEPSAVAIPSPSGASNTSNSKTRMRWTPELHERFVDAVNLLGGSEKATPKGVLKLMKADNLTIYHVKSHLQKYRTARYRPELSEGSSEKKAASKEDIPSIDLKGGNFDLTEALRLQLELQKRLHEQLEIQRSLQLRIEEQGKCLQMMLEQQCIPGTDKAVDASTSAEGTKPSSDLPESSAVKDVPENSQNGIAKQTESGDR

B1: OsSPX2 promoter P1BS probe (dsDNA)
DNA 1: TATCCCCGTCACGAATATTCCTCTTCCTCC
DNA 2: GGAGGAAGAGGAATATTCGTGACGGGGATA
  binding result: binds
